In patent publication US20260167699A1 (Chugai, published 2026):

B1: GpH7-A5/GpH7-B3 variant I332_16H/GpL16-k0 (antibody, human IgG1, kappa)
heavy 1: not shown
heavy 2: not shown
light: DIVMTQSPLSLPVTPGEPASISCQASESLVHSNRNTYLHWYLQKPGQSPQLLIYKVSNRFSGVPDRFSGSGSGTDFTLKISRVEAEDVGVYYCSQNTHVPPTFGQGTKVEIERTVAAPSVFIFPPSDEQLKSGTASVVCLLNNFYPREAKVQWKVDNALQSGNSQESVTEQDSKDSTYSLSSTLTLSKADYEKHKVYACEVTHQGLSSPVTKSFNRGEC
notes: copies: 1 + 1 + 2
B2: GpH7-A5/GpH7-B3 variant I332_18N/GpL16-k0 (antibody, human IgG1, kappa)
heavy 1: not shown
heavy 2: not shown
light: B1 light
notes: copies: 1 + 1 + 2
B3: GpH7-A5/GpH7-B3 variant K326_01G/GpL16-k0 (antibody, human IgG1, kappa)
heavy 1: not shown
heavy 2: not shown
light: B1 light
notes: copies: 1 + 1 + 2
B4: GpH7-A5/GpH7-B3 variant L234_01G/GpL16-k0 (antibody, human IgG1, kappa)
heavy 1: not shown
heavy 2: not shown
light: B1 light
notes: copies: 1 + 1 + 2
B5: GpH7-A5/GpH7-B3 variant K334_19Q/GpL16-k0 (antibody, human IgG1, kappa)
heavy 1: not shown
heavy 2: not shown
light: B1 light
notes: copies: 1 + 1 + 2
B6: GpH7-A5/GpH7-B3 variant I336_02A/GpL16-k0 (antibody, human IgG1, kappa)
heavy 1: not shown
heavy 2: not shown
light: B1 light
notes: copies: 1 + 1 + 2
B7: GpH7-A5/GpH7-B3 variant K334_02A/GpL16-k0 (antibody, human IgG1, kappa)
heavy 1: not shown
heavy 2: not shown
light: B1 light
notes: copies: 1 + 1 + 2
B8: GpH7-A5/GpH7-B3 variant K326_06M/GpL16-k0 (antibody, human IgG1, kappa)
heavy 1: not shown
heavy 2: not shown
light: B1 light
notes: copies: 1 + 1 + 2
B9: GpH7-A5/GpH7-B3 variant K334_04F/GpL16-k0 (antibody, human IgG1, kappa)
heavy 1: not shown
heavy 2: not shown
light: B1 light
notes: copies: 1 + 1 + 2
B10: GpH7-A5/GpH7-B3 variant I336_08L/GpL16-k0 (antibody, human IgG1, kappa)
heavy 1: not shown
heavy 2: not shown
light: B1 light
notes: copies: 1 + 1 + 2
B11: GpH7-A5/GpH7-B3 variant K326_02A/GpL16-k0 (antibody, human IgG1, kappa)
heavy 1: not shown
heavy 2: not shown
light: B1 light
notes: copies: 1 + 1 + 2
B12: GpH7-A5/GpH7-B3 variant I336_03V/GpL16-k0 (antibody, human IgG1, kappa)
heavy 1: not shown
heavy 2: not shown
light: B1 light
notes: copies: 1 + 1 + 2
B13: GpH7-A5/GpH7-B3 variant I332_15Y/GpL16-k0 (antibody, human IgG1, kappa)
heavy 1: not shown
heavy 2: not shown
light: B1 light
notes: copies: 1 + 1 + 2
B14: GpH7-A5/GpH7-B3 variant I336_09D/GpL16-k0 (antibody, human IgG1, kappa)
heavy 1: not shown
heavy 2: not shown
light: B1 light
notes: copies: 1 + 1 + 2
B15: GpH7-A5/GpH7-B3 variant K334_05P/GpL16-k0 (antibody, human IgG1, kappa)
heavy 1: not shown
heavy 2: not shown
light: B1 light
notes: copies: 1 + 1 + 2
B16: GpH7-A5/GpH7-B3 variant I336_01G/GpL16-k0 (antibody, human IgG1, kappa)
heavy 1: not shown
heavy 2: not shown
light: B1 light
notes: copies: 1 + 1 + 2
B17: GpH7-A5/GpH7-B3 variant I336_18N/GpL16-k0 (antibody, human IgG1, kappa)
heavy 1: not shown
heavy 2: not shown
light: B1 light
notes: copies: 1 + 1 + 2
B18: GpH7-A5/GpH7-B3 variant K334_08L/GpL16-k0 (antibody, human IgG1, kappa)
heavy 1: not shown
heavy 2: not shown
light: B1 light
notes: copies: 1 + 1 + 2
B19: GpH7-A5/GpH7-B3 variant I332_19Q/GpL16-k0 (antibody, human IgG1, kappa)
heavy 1: not shown
heavy 2: not shown
light: B1 light
notes: copies: 1 + 1 + 2
B20: GpH7-A5/GpH7-B3 variant K326_19Q/GpL16-k0 (antibody, human IgG1, kappa)
heavy 1: not shown
heavy 2: not shown
light: B1 light
notes: copies: 1 + 1 + 2
B21: GpH7-A5/GpH7-B3 variant K326_08L/GpL16-k0 (antibody, human IgG1, kappa)
heavy 1: not shown
heavy 2: not shown
light: B1 light
notes: copies: 1 + 1 + 2
B22: GpH7-A5/GpH7-B3 variant L234_02A/GpL16-k0 (antibody, human IgG1, kappa)
heavy 1: not shown
heavy 2: not shown
light: B1 light
notes: copies: 1 + 1 + 2
B23: GpH7-A5/GpH7-B3 variant K334_03V/GpL16-k0 (antibody, human IgG1, kappa)
heavy 1: not shown
heavy 2: not shown
light: B1 light
notes: copies: 1 + 1 + 2
B24: GpH7-A5/GpH7-B3 variant I336_04F/GpL16-k0 (antibody, human IgG1, kappa)
heavy 1: not shown
heavy 2: not shown
light: B1 light
notes: copies: 1 + 1 + 2
B25: GpH7-A5/GpH7-B3 variant K334_06M/GpL16-k0 (antibody, human IgG1, kappa)
heavy 1: not shown
heavy 2: not shown
light: B1 light
notes: copies: 1 + 1 + 2
B26: GpH7-A5/GpH7-B3 variant K326_10E/GpL16-k0 (antibody, human IgG1, kappa)
heavy 1: not shown
heavy 2: not shown
light: B1 light
notes: copies: 1 + 1 + 2
B27: GpH7-A5/GpH7-B3 variant K334_07I/GpL16-k0 (antibody, human IgG1, kappa)
heavy 1: not shown
heavy 2: not shown
light: B1 light
notes: copies: 1 + 1 + 2
B28: GpH7-A5/GpH7-B3 variant K334_12R/GpL16-k0 (antibody, human IgG1, kappa)
heavy 1: not shown
heavy 2: not shown
light: B1 light
notes: copies: 1 + 1 + 2
B29: GpH7-A5/GpH7-B3 variant K326_05P/GpL16-k0 (antibody, human IgG1, kappa)
heavy 1: not shown
heavy 2: not shown
light: B1 light
notes: copies: 1 + 1 + 2
B30: GpH7-A5/GpH7-B3 variant K326_09D/GpL16-k0 (antibody, human IgG1, kappa)
heavy 1: not shown
heavy 2: not shown
light: B1 light
notes: copies: 1 + 1 + 2
B31: GpH7-A5/GpH7-B3 variant K326_03V/GpL16-k0 (antibody, human IgG1, kappa)
heavy 1: not shown
heavy 2: not shown
light: B1 light
notes: copies: 1 + 1 + 2

Target: T1, FcγRIIIa (human, UniProt P08637 17-208)
T1 construct: extracellular domain; also called 3a; FcγRIIIa extracellular domain
Test: SPR (Biacore);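 further: antibody variants captured on an SPR sensor chip, with FcγRIIIa passed over as analyte in HBS-EP+ buffer at 25 °C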
Method: The antibody of interest was analyzed for its interaction with FcγR using a BiaCore™ T100, BiaCore™ A100, or BiaCore™ 4000 surface plasmon resonance system (GE Healthcare Japan Corp.). The running buffer used was HBS-EP+ (GE Healthcare Japan Corp.). The assay temperature was set to 25° C. The sensor chips used were: a chip prepared by immobilizing antigenic peptides onto Series S Sensor Chip CM5 (GE Healthcare Japan Corp.) by the amine coupling method; a chip prepared by immobilizing antigenic peptides biotinylated in advance onto Series S Sensor Chip SA (certified) (GE Healthcare Japan Corp.) through their interaction; a chip prepared by immobilizing protein L (ACTIGEN, BioVision, Inc.) onto Series S Sensor Chip CM5 (GE Healthcare Japan Corp.); and a chip prepared by immobilizing protein A/G (Thermo Fisher Scientific K.K.) onto Series S Sensor Chip CM5 (GE Healthcare Japan Corp.). The antibody of interest was captured onto any of these chips and allowed to interact with FcγR diluted with a running buffer. The antibody captured on the chip was washed off through the reaction of 10 mM glycine-HCl (pH 1.5) to regenerate the chip, which was repetitively used.

T1 sequence (P08637 other isoform, or with tags, fused parts or gaps): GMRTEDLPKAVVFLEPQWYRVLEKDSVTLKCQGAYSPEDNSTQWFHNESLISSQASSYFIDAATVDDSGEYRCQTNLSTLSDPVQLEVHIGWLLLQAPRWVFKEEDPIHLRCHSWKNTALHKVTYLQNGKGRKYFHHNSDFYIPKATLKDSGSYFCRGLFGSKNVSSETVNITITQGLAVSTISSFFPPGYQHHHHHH

He/Con 3a	Binder
89 % of GpH7-A5/GpH7-B3/GpL16-k0	B1
84.9 % of GpH7-A5/GpH7-B3/GpL16-k0	B2
114 % of GpH7-A5/GpH7-B3/GpL16-k0	B3
55.8 % of GpH7-A5/GpH7-B3/GpL16-k0	B4
140 % of GpH7-A5/GpH7-B3/GpL16-k0	B5
106 % of GpH7-A5/GpH7-B3/GpL16-k0	B6
152 % of GpH7-A5/GpH7-B3/GpL16-k0	B7
127 % of GpH7-A5/GpH7-B3/GpL16-k0	B8
152 % of GpH7-A5/GpH7-B3/GpL16-k0	B9
102 % of GpH7-A5/GpH7-B3/GpL16-k0	B10
130 % of GpH7-A5/GpH7-B3/GpL16-k0	B11
107 % of GpH7-A5/GpH7-B3/GpL16-k0	B12
92.4 % of GpH7-A5/GpH7-B3/GpL16-k0	B13
102 % of GpH7-A5/GpH7-B3/GpL16-k0	B14
138 % of GpH7-A5/GpH7-B3/GpL16-k0	B15
94.6 % of GpH7-A5/GpH7-B3/GpL16-k0	B16

He/Con 3a	Binder
99.4 % of GpH7-A5/GpH7-B3/GpL16-k0	B17
148 % of GpH7-A5/GpH7-B3/GpL16-k0	B18
101 % of GpH7-A5/GpH7-B3/GpL16-k0	B19
117 % of GpH7-A5/GpH7-B3/GpL16-k0	B20
126 % of GpH7-A5/GpH7-B3/GpL16-k0	B21
69.7 % of GpH7-A5/GpH7-B3/GpL16-k0	B22
154 % of GpH7-A5/GpH7-B3/GpL16-k0	B23
93.2 % of GpH7-A5/GpH7-B3/GpL16-k0	B24
149 % of GpH7-A5/GpH7-B3/GpL16-k0	B25
138 % of GpH7-A5/GpH7-B3/GpL16-k0	B26
156 % of GpH7-A5/GpH7-B3/GpL16-k0	B27
93.5 % of GpH7-A5/GpH7-B3/GpL16-k0	B28
117 % of GpH7-A5/GpH7-B3/GpL16-k0	B29
148 % of GpH7-A5/GpH7-B3/GpL16-k0	B30
135 % of GpH7-A5/GpH7-B3/GpL16-k0	B31
